Test results as given in paper PMC12617493 (Science Advances, 2025).

B1: Osh6 (natural protein, S. cerevisiae, UniProt Q02201 1-448, looked up)
chain: MGSKKLTVGSDSHRLSKSSFSSNKSSHSATKDQPIDTDDIDEDDESGHNIILNIISQLRPGCDLTRITLPTFILEKKSMLERVTNQLQFPEFLLQAHSEKDPLKRFLYVMKWYLAGWHIAPKAVKKPLNPVLGEYFTAYWDLPNKQQAYYISEQTSHHPPECAYFYMIPESSIRVDGVVIPKSRFLGNSSAAMMDGSTVLQFLDIKDGNGKPEKYVLTQPNVYVRGILFGKMRIELGDHMIIKSPNFQADIEFKTKGYVFGTYDAIEGTVKDYDGNAYYEISGKWNDVMYLKDLKQPRSSPKVFLDTHKESPLRPKVRPLSEQGEYESRKLWKKVTDALAVRNHPVATEEKFQIEDHQRQLAKKRIEDGVEFHPKLFRRSKPGEDLDYCIYKNIPVDEDPEKQIRSILQIAPILPGQQFTDKFFIPAFEKIKSQKKMIENEKQNPAKQ
B4: CIst2[590–946] (domain or fragment, S. cerevisiae)
chain: CSSHDDVANGIVPKHVVNVQNPPKQEVFEKIPSPEFNSNNEKELVQRKGSANEKLHQELGEKQPASSANGYEAHAATHANNDPSSLSSASSPSLSSSSSSSKTGVVKAVDNDTAGSAGKKPLATESTEKRNSLVKVPTVGSYGVAGATLPETIPTSKNYYLRFDEDGKSIRDAKSSAESSNATNNNTLGTESKLLPDGDAVDALSRKIDQIPKIAVTGGENNENTQAKDDAATKTPLIKDANIKPVVNAAVNDNQSKVSVATEQTKKTEVSTKNGPSRSISTKETKDSARPSNNNTTTTTTTDATQPHHHHHHHRHRDAGVKNVTNNSKTTESSSSSSAAKEKPKHKKGLLHKLKKKL
modifications: N-terminal cysteine covalently attached to MPB-PE of liposomes (in the experiments with MPB-PE–containing liposomes)
notes: extra N-terminal cysteine; With PM-like liposomes it is held by its C-terminal polybasic motif, not covalently; also called Ist2 IDR with an extra N-terminal cysteine; source: E. coli BL21-GOLD(DE3), purified (Glutathione Sepharose 4B, thrombin cleavage, Sephacryl S-200 HR); not shown: GST, N-terminal, cleaved

Experiments:
CIst2[590–946] [1] = molecular target: B4
CIst2[590–946] [2] = molecular target: B4; test: cell-based or functional assay
Osh6(H157A/H158A) = molecular target: T1, Osh6(H157A/H158A) (S. cerevisiae, UniProt Q02201 1-448, H157A | H158A); test: pull-down; GST constructs (2.5 μM) immobilised on Glutathione Sepharose 4B beads; Osh6, its mutants, Osh4, ORD^Osh3 or ORD^ORP8 added at 2.5 μM; 50 mM tris pH 7.4, 120 mM NaCl, 1 mM MgCl2, 1% TX-100, 1 mM DTT, 10% glycerol; 25°C, 1 hour; bound fraction by SDS-PAGE; conditions: both partners purified
T1 construct: also called Osh6(HH/AA)
T1 sequence (looked up): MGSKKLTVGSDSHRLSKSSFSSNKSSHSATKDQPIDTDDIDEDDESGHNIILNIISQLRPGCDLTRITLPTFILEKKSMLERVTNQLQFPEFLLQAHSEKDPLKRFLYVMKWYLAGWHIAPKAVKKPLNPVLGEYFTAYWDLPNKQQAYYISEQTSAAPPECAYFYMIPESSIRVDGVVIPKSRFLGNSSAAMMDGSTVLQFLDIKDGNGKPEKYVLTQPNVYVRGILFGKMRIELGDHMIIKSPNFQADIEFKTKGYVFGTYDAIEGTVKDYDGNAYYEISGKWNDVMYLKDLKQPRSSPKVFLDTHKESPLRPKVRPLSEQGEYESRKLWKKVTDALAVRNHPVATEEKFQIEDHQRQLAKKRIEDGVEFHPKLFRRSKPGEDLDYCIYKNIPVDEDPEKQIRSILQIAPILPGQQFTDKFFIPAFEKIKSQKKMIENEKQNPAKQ

Osh6 = molecular target: B1; test: liposome flotation assay; Osh6 (0.75 μM) with or without an equivalent amount of CIst2[590–946] and PM-like liposomes POPC/POPS/PI(4,5)P2/NBD-PE (65:30:5:0.1); sucrose gradient, top fraction by SDS-PAGE; conditions: both partners purified

Q: How did the Ist2-dependent (ER→PM)/(ER→O) NBD-PS transfer rate ratio R (Ist2), three liposome populations, LER and LPM connected by CIst2[590–946], FRET, 30°C (CIst2[590–946] [1]) turn out when “ORD^ORP8 (H514A/H515A) (domain or fragment)” was run?
A: 1

Q: Which “Ist2-dependent (ER→PM)/(ER→O) NBD-PS transfer rate ratio R_(Ist2), three liposome populations, LER and LPM connected by CIst2[590–946], FRET, 30°C” value (CIst2[590–946] [2]) does the source give for B1 here?
A: 7.6

B2: Osh6(HH/AA)-3M (natural protein, S. cerevisiae, UniProt Q02201 1-448, looked up)
chain: MGSKKLTVGSDSHRLSKSSFSSNKSSHSATKDQPIDTDDIDEDDESGHNIILNIISQLRPGCDLTRITLPTFILEKKSMLERVTNQLQFPEFLLQAHSEKDPLKRFLYVMKWYLAGWHIAPKAVKKPLNPVLGEYFTAYWDLPNKQQAYYISEQTSAAPPECAYFYMIPASSIRVDGVVIPKSRFLGNSSAAMMDGSTVLQFLDIKDGNGKPEKYVLTQPNVYVRGILFGKMRIELGDHMIIKSPNFQADIEFKTKGYVFGTYDAIEGTVKDYDGNAYYEISGKWNDVMYLKDLKQPRSSPKVFLDTHKESPLRPKVRPLSEQGEYESRKLWKKVTDALAVRNHPVATEEKFQIEDHQRQLAKKRIEDGVEFHPKLFRRSKPGEDLDYCIYKNIPVDEDPEKQIRSILQIAPILPGAQFIDKFFIPAFEKIKSQKKMIENEKQNPAKQ
Q: With B2 as the molecule, how does the “Ist2-dependent (ER→PM)/(ER→O) NBD-PS transfer rate ratio R_(Ist2), three liposome populations, LER and LPM connected by CIst2[590–946], FRET” value (CIst2[590–946] [2]) read?
A: ~1

B3: GST-Ist2[590–946] (domain or fragment, S. cerevisiae, UniProt P38250 590-946, looked up)
chain: SSHDDVANGIVPKHVVNVQNPPKQEVFEKIPSPEFNSNNEKELVQRKGSANEKLHQELGEKQPASSANGYEAHAATHANNDPSSLSSASSPSLSSSSSSSKTGVVKAVDNDTAGSAGKKPLATESTEKRNSLVKVPTVGSYGVAGATLPETIPTSKNYYLRFDEDGKSIRDAKSSAESSNATNNNTLGTESKLLPDGDAVDALSRKIDQIPKIAVTGGENNENTQAKDDAATKTPLIKDANIKPVVNAAVNDNQSKVSVATEQTKKTEVSTKNGPSRSISTKETKDSARPSNNNTTTTTTTDATQPHHHHHHHRHRDAGVKNVTNNSKTTESSSSSSAAKEKPKHKKGLLHKLKKKL
notes: also called Ist2 IDR; full-length Ist2 IDR; source: E. coli BL21-GOLD(DE3), purified (Glutathione Sepharose 4B, eluted with glutathione); not shown: GST, N-terminal, kept
Q: Does B3 bind (Osh6(H157A/H158A))?
A: binds

Q: Does B4 bind (Osh6)?
A: binds
